Results from PMC10030467 (Nature Communications, 2023).

B1: TRIM72 W277A (natural protein, human, UniProt Q6ZMU5-1 2-477, looked up)
chain: SAAPGLLHQELSCPLCLQLFDAPVTAECGHSFCRACLGRVAGEPAADGTVLCPCCQAPTRPQALSTNLQLARLVEGLAQVPQGHCEEHLDPLSIYCEQDRALVCGVCASLGSHRGHRLLPAAEAHARLKTQLPQQKLQLQEACMRKEKSVAVLEHQLVEVEETVRQFRGAVGEQLGKMRVFLAALEGSLDREAERVRGEAGVALRRELGSLNSYLEQLRQMEKVLEEVADKPQTEFLMKYCLVTSRLQKILAESPPPARLDIQLPIISDDFKFQVARKMFRALMPALEELTFDPSSAHPSLVVSSSGRRVECSEQKAPPAGEDPRQFDKAVAVVAHQQLSEGEHYWEVDVGDKPRWALGVIAAEAPRRGRLHAVPSQGLWLLGLREGKILEAHVEAKEPRALRSPERRPTRIGLYLSFGDGVLSFYDASDADALVPLFAFHERLPRPVYPFFDVCWHDKGKNAQPLLLVGPEGAEA
notes: TRIM72, human, residues 2-477, point mutant; primers are in Supplementary Data 3; source: E. coli Rosetta (DE3), purified; not shown: His-Sumo, N-terminal, cleaved
B2: TRIM72 W277E (natural protein, human, UniProt Q6ZMU5-1 2-477, looked up)
chain: SAAPGLLHQELSCPLCLQLFDAPVTAECGHSFCRACLGRVAGEPAADGTVLCPCCQAPTRPQALSTNLQLARLVEGLAQVPQGHCEEHLDPLSIYCEQDRALVCGVCASLGSHRGHRLLPAAEAHARLKTQLPQQKLQLQEACMRKEKSVAVLEHQLVEVEETVRQFRGAVGEQLGKMRVFLAALEGSLDREAERVRGEAGVALRRELGSLNSYLEQLRQMEKVLEEVADKPQTEFLMKYCLVTSRLQKILAESPPPARLDIQLPIISDDFKFQVERKMFRALMPALEELTFDPSSAHPSLVVSSSGRRVECSEQKAPPAGEDPRQFDKAVAVVAHQQLSEGEHYWEVDVGDKPRWALGVIAAEAPRRGRLHAVPSQGLWLLGLREGKILEAHVEAKEPRALRSPERRPTRIGLYLSFGDGVLSFYDASDADALVPLFAFHERLPRPVYPFFDVCWHDKGKNAQPLLLVGPEGAEA
notes: TRIM72, human, residues 2-477, point mutant; source: E. coli Rosetta (DE3), purified; not shown: His-Sumo, N-terminal, cleaved
B3: TRIM72 M179A (natural protein, human, UniProt Q6ZMU5-1 2-477, looked up)
chain: SAAPGLLHQELSCPLCLQLFDAPVTAECGHSFCRACLGRVAGEPAADGTVLCPCCQAPTRPQALSTNLQLARLVEGLAQVPQGHCEEHLDPLSIYCEQDRALVCGVCASLGSHRGHRLLPAAEAHARLKTQLPQQKLQLQEACMRKEKSVAVLEHQLVEVEETVRQFRGAVGEQLGKARVFLAALEGSLDREAERVRGEAGVALRRELGSLNSYLEQLRQMEKVLEEVADKPQTEFLMKYCLVTSRLQKILAESPPPARLDIQLPIISDDFKFQVWRKMFRALMPALEELTFDPSSAHPSLVVSSSGRRVECSEQKAPPAGEDPRQFDKAVAVVAHQQLSEGEHYWEVDVGDKPRWALGVIAAEAPRRGRLHAVPSQGLWLLGLREGKILEAHVEAKEPRALRSPERRPTRIGLYLSFGDGVLSFYDASDADALVPLFAFHERLPRPVYPFFDVCWHDKGKNAQPLLLVGPEGAEA
notes: as for B2
B4: TRIM72 M179E (natural protein, human, UniProt Q6ZMU5-1 2-477, looked up)
chain: SAAPGLLHQELSCPLCLQLFDAPVTAECGHSFCRACLGRVAGEPAADGTVLCPCCQAPTRPQALSTNLQLARLVEGLAQVPQGHCEEHLDPLSIYCEQDRALVCGVCASLGSHRGHRLLPAAEAHARLKTQLPQQKLQLQEACMRKEKSVAVLEHQLVEVEETVRQFRGAVGEQLGKERVFLAALEGSLDREAERVRGEAGVALRRELGSLNSYLEQLRQMEKVLEEVADKPQTEFLMKYCLVTSRLQKILAESPPPARLDIQLPIISDDFKFQVWRKMFRALMPALEELTFDPSSAHPSLVVSSSGRRVECSEQKAPPAGEDPRQFDKAVAVVAHQQLSEGEHYWEVDVGDKPRWALGVIAAEAPRRGRLHAVPSQGLWLLGLREGKILEAHVEAKEPRALRSPERRPTRIGLYLSFGDGVLSFYDASDADALVPLFAFHERLPRPVYPFFDVCWHDKGKNAQPLLLVGPEGAEA
notes: as for B2
B5: TRIM72 F272A (natural protein, human, UniProt Q6ZMU5-1 2-477, looked up)
chain: SAAPGLLHQELSCPLCLQLFDAPVTAECGHSFCRACLGRVAGEPAADGTVLCPCCQAPTRPQALSTNLQLARLVEGLAQVPQGHCEEHLDPLSIYCEQDRALVCGVCASLGSHRGHRLLPAAEAHARLKTQLPQQKLQLQEACMRKEKSVAVLEHQLVEVEETVRQFRGAVGEQLGKMRVFLAALEGSLDREAERVRGEAGVALRRELGSLNSYLEQLRQMEKVLEEVADKPQTEFLMKYCLVTSRLQKILAESPPPARLDIQLPIISDDAKFQVWRKMFRALMPALEELTFDPSSAHPSLVVSSSGRRVECSEQKAPPAGEDPRQFDKAVAVVAHQQLSEGEHYWEVDVGDKPRWALGVIAAEAPRRGRLHAVPSQGLWLLGLREGKILEAHVEAKEPRALRSPERRPTRIGLYLSFGDGVLSFYDASDADALVPLFAFHERLPRPVYPFFDVCWHDKGKNAQPLLLVGPEGAEA
notes: as for B2
B6: TRIM72 R169A (natural protein, human, UniProt Q6ZMU5-1 2-477, looked up)
chain: SAAPGLLHQELSCPLCLQLFDAPVTAECGHSFCRACLGRVAGEPAADGTVLCPCCQAPTRPQALSTNLQLARLVEGLAQVPQGHCEEHLDPLSIYCEQDRALVCGVCASLGSHRGHRLLPAAEAHARLKTQLPQQKLQLQEACMRKEKSVAVLEHQLVEVEETVRQFAGAVGEQLGKMRVFLAALEGSLDREAERVRGEAGVALRRELGSLNSYLEQLRQMEKVLEEVADKPQTEFLMKYCLVTSRLQKILAESPPPARLDIQLPIISDDFKFQVWRKMFRALMPALEELTFDPSSAHPSLVVSSSGRRVECSEQKAPPAGEDPRQFDKAVAVVAHQQLSEGEHYWEVDVGDKPRWALGVIAAEAPRRGRLHAVPSQGLWLLGLREGKILEAHVEAKEPRALRSPERRPTRIGLYLSFGDGVLSFYDASDADALVPLFAFHERLPRPVYPFFDVCWHDKGKNAQPLLLVGPEGAEA
notes: as for B2
B7: TRIM72 R169E (natural protein, human, UniProt Q6ZMU5-1 2-477, looked up)
chain: SAAPGLLHQELSCPLCLQLFDAPVTAECGHSFCRACLGRVAGEPAADGTVLCPCCQAPTRPQALSTNLQLARLVEGLAQVPQGHCEEHLDPLSIYCEQDRALVCGVCASLGSHRGHRLLPAAEAHARLKTQLPQQKLQLQEACMRKEKSVAVLEHQLVEVEETVRQFEGAVGEQLGKMRVFLAALEGSLDREAERVRGEAGVALRRELGSLNSYLEQLRQMEKVLEEVADKPQTEFLMKYCLVTSRLQKILAESPPPARLDIQLPIISDDFKFQVWRKMFRALMPALEELTFDPSSAHPSLVVSSSGRRVECSEQKAPPAGEDPRQFDKAVAVVAHQQLSEGEHYWEVDVGDKPRWALGVIAAEAPRRGRLHAVPSQGLWLLGLREGKILEAHVEAKEPRALRSPERRPTRIGLYLSFGDGVLSFYDASDADALVPLFAFHERLPRPVYPFFDVCWHDKGKNAQPLLLVGPEGAEA
notes: as for B2
B8: TRIM72 R180A (natural protein, human, UniProt Q6ZMU5-1 2-477, looked up)
chain: SAAPGLLHQELSCPLCLQLFDAPVTAECGHSFCRACLGRVAGEPAADGTVLCPCCQAPTRPQALSTNLQLARLVEGLAQVPQGHCEEHLDPLSIYCEQDRALVCGVCASLGSHRGHRLLPAAEAHARLKTQLPQQKLQLQEACMRKEKSVAVLEHQLVEVEETVRQFRGAVGEQLGKMAVFLAALEGSLDREAERVRGEAGVALRRELGSLNSYLEQLRQMEKVLEEVADKPQTEFLMKYCLVTSRLQKILAESPPPARLDIQLPIISDDFKFQVWRKMFRALMPALEELTFDPSSAHPSLVVSSSGRRVECSEQKAPPAGEDPRQFDKAVAVVAHQQLSEGEHYWEVDVGDKPRWALGVIAAEAPRRGRLHAVPSQGLWLLGLREGKILEAHVEAKEPRALRSPERRPTRIGLYLSFGDGVLSFYDASDADALVPLFAFHERLPRPVYPFFDVCWHDKGKNAQPLLLVGPEGAEA
notes: as for B2
B9: TRIM72 R180E (natural protein, human, UniProt Q6ZMU5-1 2-477, looked up)
chain: SAAPGLLHQELSCPLCLQLFDAPVTAECGHSFCRACLGRVAGEPAADGTVLCPCCQAPTRPQALSTNLQLARLVEGLAQVPQGHCEEHLDPLSIYCEQDRALVCGVCASLGSHRGHRLLPAAEAHARLKTQLPQQKLQLQEACMRKEKSVAVLEHQLVEVEETVRQFRGAVGEQLGKMEVFLAALEGSLDREAERVRGEAGVALRRELGSLNSYLEQLRQMEKVLEEVADKPQTEFLMKYCLVTSRLQKILAESPPPARLDIQLPIISDDFKFQVWRKMFRALMPALEELTFDPSSAHPSLVVSSSGRRVECSEQKAPPAGEDPRQFDKAVAVVAHQQLSEGEHYWEVDVGDKPRWALGVIAAEAPRRGRLHAVPSQGLWLLGLREGKILEAHVEAKEPRALRSPERRPTRIGLYLSFGDGVLSFYDASDADALVPLFAFHERLPRPVYPFFDVCWHDKGKNAQPLLLVGPEGAEA
notes: as for B2
B10: TRIM72 R198A (natural protein, human, UniProt Q6ZMU5-1 2-477, looked up)
chain: SAAPGLLHQELSCPLCLQLFDAPVTAECGHSFCRACLGRVAGEPAADGTVLCPCCQAPTRPQALSTNLQLARLVEGLAQVPQGHCEEHLDPLSIYCEQDRALVCGVCASLGSHRGHRLLPAAEAHARLKTQLPQQKLQLQEACMRKEKSVAVLEHQLVEVEETVRQFRGAVGEQLGKMRVFLAALEGSLDREAERVAGEAGVALRRELGSLNSYLEQLRQMEKVLEEVADKPQTEFLMKYCLVTSRLQKILAESPPPARLDIQLPIISDDFKFQVWRKMFRALMPALEELTFDPSSAHPSLVVSSSGRRVECSEQKAPPAGEDPRQFDKAVAVVAHQQLSEGEHYWEVDVGDKPRWALGVIAAEAPRRGRLHAVPSQGLWLLGLREGKILEAHVEAKEPRALRSPERRPTRIGLYLSFGDGVLSFYDASDADALVPLFAFHERLPRPVYPFFDVCWHDKGKNAQPLLLVGPEGAEA
notes: as for B2
B11: TRIM72 R198E (natural protein, human, UniProt Q6ZMU5-1 2-477, looked up)
chain: SAAPGLLHQELSCPLCLQLFDAPVTAECGHSFCRACLGRVAGEPAADGTVLCPCCQAPTRPQALSTNLQLARLVEGLAQVPQGHCEEHLDPLSIYCEQDRALVCGVCASLGSHRGHRLLPAAEAHARLKTQLPQQKLQLQEACMRKEKSVAVLEHQLVEVEETVRQFRGAVGEQLGKMRVFLAALEGSLDREAERVEGEAGVALRRELGSLNSYLEQLRQMEKVLEEVADKPQTEFLMKYCLVTSRLQKILAESPPPARLDIQLPIISDDFKFQVWRKMFRALMPALEELTFDPSSAHPSLVVSSSGRRVECSEQKAPPAGEDPRQFDKAVAVVAHQQLSEGEHYWEVDVGDKPRWALGVIAAEAPRRGRLHAVPSQGLWLLGLREGKILEAHVEAKEPRALRSPERRPTRIGLYLSFGDGVLSFYDASDADALVPLFAFHERLPRPVYPFFDVCWHDKGKNAQPLLLVGPEGAEA
notes: as for B2
B12: TRIM72 R220A (natural protein, human, UniProt Q6ZMU5-1 2-477, looked up)
chain: SAAPGLLHQELSCPLCLQLFDAPVTAECGHSFCRACLGRVAGEPAADGTVLCPCCQAPTRPQALSTNLQLARLVEGLAQVPQGHCEEHLDPLSIYCEQDRALVCGVCASLGSHRGHRLLPAAEAHARLKTQLPQQKLQLQEACMRKEKSVAVLEHQLVEVEETVRQFRGAVGEQLGKMRVFLAALEGSLDREAERVRGEAGVALRRELGSLNSYLEQLAQMEKVLEEVADKPQTEFLMKYCLVTSRLQKILAESPPPARLDIQLPIISDDFKFQVWRKMFRALMPALEELTFDPSSAHPSLVVSSSGRRVECSEQKAPPAGEDPRQFDKAVAVVAHQQLSEGEHYWEVDVGDKPRWALGVIAAEAPRRGRLHAVPSQGLWLLGLREGKILEAHVEAKEPRALRSPERRPTRIGLYLSFGDGVLSFYDASDADALVPLFAFHERLPRPVYPFFDVCWHDKGKNAQPLLLVGPEGAEA
notes: as for B2

Target: the molecule itself
Experiment: SEC-MALS; point mutants, 100 μL at 1 mg/mL; Superdex 200 increase, 20 mM Tris-HCl pH 8.0, 200 mM NaCl, 0.3 mM TCEP

Stoichiometry N, 2:
B1
B2
B3
B4
B5
B6
B7
B8
B9
B10
B11
B12
